Source: the supplement of paper PMC12042874
± gives the uncertainty stated by the source.

Assay: amyloid nucleation score (Sup35N fusion, yeast selection) (log enrichment); library NNK1; higher = more nucleation; inactive = no reads after selection
Method in brief: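 Using DiMSum, nucleation scores were taken as the log enrichment of output over input reads, centred on the mode score of non-aggregating sequences. The input and output reads came from Illumina sequencing of plasmid inserts, with sequences under 100 input reads excluded. The yeast were psi-negative, expressed Sup35N fused to peptides of 20 random codons, were induced with 100 μM copper sulfate for 24 hours, and were grown 7 days at 30°C on medium lacking adenine and uracil.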

Substance	amyloid nucleation score
KRTLGTRGRIQVKSCPVGEL	-0.467 ± 0.35
KRVCLFLGSWNRHHLLGLFG	1.41 ± 0.84
KRVLCSTCIHRLCPKSGGDC	1.33 ± 0.68
KRYDLRLKMMTTPI	1.29 ± 0.41
KSAYVANRGCRRLYGVHNKM	-0.647 ± 0.71
KSFACYNKDQ	0.423 ± 0.99
KSKLMNKQFSRLTLVSTESR	3.86 ± 0.13
KSLVVACDVYSNALLRVMFR	-0.291 ± 0.26
KSPRFASTYPLSSSYSLRVI	-0.327 ± 0.28
KSRSRLPCTRSHTIEFVRMR	0.831 ± 0.56
KSSWSSAS	-0.076 ± 0.3
KTCSQSEKM	-0.562 ± 0.3
KTSNKWMIKRNYRAYGHCSV	-0.357 ± 0.37
KVCFPY	-1.03 ± 0.4
KVDLLA	-0.13 ± 0.56
KVGYLYEAIGGKDDL	-0.605 ± 1.1
KVHPYEMDENYNPSRCYSSS	-0.049 ± 0.48
KVLLR	0.725 ± 0.36
KVNFSSSLGCVN	0.713 ± 0.85
KVSENLPRMPANLLTI	0.09 ± 0.44
KVSPIMDEN	0.547 ± 0.37
KVSYCSSGYLTSLTWRFLLI	0.888 ± 0.28
KVSYRMRASPRSKILVIRKS	0.43 ± 0.72
KVYIIFVRGEDAFKLRGAAN	-0.529 ± 1.5
KWGLGFFDWKMKYHFRCYKC	0.033 ± 0.56

Substance	amyloid nucleation score
KWIRRRTDIFELSRLVWMGW	-0.694 ± 0.58
KWVDEECFDFMKGGF	-0.756 ± 0.73
KYFYMMTAYRRWRRDPYLGG	-0.54 ± 0.62
KYKDFLGSISDLDWII	-0.464 ± 1.4
KYMTDIIT	0.413 ± 0.2
KYRVSLNFRWRFRLMISHNG	-0.002 ± 0.4
KYYYWRRVPVCQKGDLF	0.095 ± 0.31
LAAST	0.311 ± 0.4
LAFKGAITPSDFGLNNRYRF	-0.037 ± 1.4
LAGGVHLRPHERKEFLD	inactive
LAHVFWRIDWMDKWGYNGDA	0.992 ± 0.26
LALMEEPLVLDNGSLDTKLS	0.579 ± 1.1
LASGRRPSQPGVRRVAKTTG	0.392 ± 0.34
LATAEASRNYVGYFGWSFMN	0.098 ± 1.1
LAVKEL	0.678 ± 0.54
LAWIGFRYRDGMKYGVHWGR	-0.522 ± 1.2
LAWSEYLMCLTRCHPIAV	0.414 ± 0.54
LCAEN	0.48 ± 0.52
LCDFKTSEVPSEGTFWSVLA	0.181 ± 0.51
LCFGYKLIAKECVCAGRTES	inactive
LCFMILNGGRQSQAQKDSYV	0.086 ± 0.4
LCGGWLMGAGRFDGR	0.862 ± 0.54
LCGSVRFRTGLECKQPSSCI	-1.02 ± 2.7
LCLGHRH	-0.818 ± 1.6
LCNKVWFAECQIHSRQG	-0.144 ± 0.83

Substance	amyloid nucleation score
LCRIKGHRFIQVDTGEAVWS	-0.629 ± 0.61
LCRILGSSPVHNLWLWGHGY	-0.363 ± 1.4
LCTFIVWKMPICPMWWGW	0.255 ± 0.2
LDCINRERYIHFMR	1.92 ± 0.5
LDHLVNDTVEILQYGAPSIH	0.733 ± 0.88
LDIVCLPKFVVWTDTV	-0.301 ± 0.56
LDLSNDGRFYKGREGAISCR	0.049 ± 0.31
LDLVTGL	1.1 ± 0.66
LDMECYYSIYRSESNVCMWI	1.31 ± 0.93
LDMTTTLLVSLESDG	0.04 ± 0.73
LDNRCKIRMVMMHSPRALRV	0.893 ± 0.81
LDRTVWH	0.757 ± 0.34
LDRYVRFEIRS	0.661 ± 0.56
LDVKSYAQVKRFSWSHSAFM	1.07 ± 0.4
LDWSMLRTELVIGILRSGRE	0.248 ± 0.52
LEAKSAGRVACQHGVALRVG	0.674 ± 0.47
LECSNSNLWCTPN	0.712 ± 0.69
LEMCLQDVIDGSGQGQNEWG	-0.074 ± 0.7
LEQFMTRYRSDIVYCCDSGS	inactive
LESHSNTINIGCKNFGCNRG	5.38 ± 0.073
LESQNHTFLRFIPKAALRIL	0.067 ± 0.47
LETRLVYLWENLPLAQTNVA	0.238 ± 0.48
LFALQGHGILSVHSFVRHWG	0.165 ± 1.1
LFCHPSFYINGMWSLGGSGG	-0.578 ± 0.66
LFCIERWMSNCFG	0.112 ± 0.75

Substance	amyloid nucleation score
LFCKSPCYFVMLADKMHIWG	5.07 ± 0.11
LFCTTSVDNKGPVRLPLVCV	-0.282 ± 1.7
LFDWWCFEKYLICRVGSLTF	-0.091 ± 0.51
LFFCGLGERG	inactive
LFFVSRG	-0.465 ± 1.6
LFGDLTNFQTFYT	inactive
LFIVSNFLWLIPKWTNSAKF	-1.66 ± 1.4
LFIYDLQLRHDYHQGYELES	0.544 ± 0.9
LFKNFEWMYSTMTHLSWIWL	-0.335 ± 0.21
LFKSPWGDDHSIST	0.434 ± 0.29
LFLFRSH	5.445 ± 0.048
LFLNMNPVLDTIIPFGWSSV	-0.128 ± 0.56
LFLNTNSRKYTKMDTILILS	-0.359 ± 0.4
LFLSWDSYPSLSKRTV	0.281 ± 0.42
LFNSYIAVGVKKTSSEVMQR	0.385 ± 0.55
LFPSTTMLLFRLNQGGFDEI	0.407 ± 0.58
LFRFDYCLPGRFNRFWPDIS	1.03 ± 0.18
LFRLYTEITGRMRVTKVKVV	0.641 ± 0.69
LFRSSKSIRSLLSFCSICMF	5.33 ± 0.076
LFRYTVRQGWFKRETHWVPM	0.296 ± 0.53
LFSSLRRGRHSLPIPLPMNL	0.013 ± 0.36
LFTFIGAVCFILNIACSLFF	1.05 ± 0.58
LFTVKKVFQLLYL	0.936 ± 0.7
LFVDPL	1.06 ± 0.88
LFVFPVESCMCMQLRVAQSK	0.642 ± 0.62

Substance	amyloid nucleation score
LFWCVSVNRDIKIQCDRTLF	1.13 ± 0.51
LFWLKKNILLDRIHLP	-0.172 ± 0.4
LFYFTRLFINRYMNM	-0.316 ± 0.5
LGCVVHDCYKVVDGIMSYML	1.69 ± 0.41
LGECFTGTDRLLEGLVSCES	0.776 ± 0.88
LGFSVCSRLVFIWEYASFGK	0.459 ± 0.46
LGFTRIGPGALTAKA	-0.72 ± 1.2
LGFVRLGGSCHITIDSGACV	-0.386 ± 1
LGGAWLSNEDMVGYKNLH	1.44 ± 0.41
LGHAKRGDWSWLKFSCDSGE	-0.167 ± 0.48
LGIAGER	0.294 ± 0.33
LGIARDSWGKIKQFSAVDSC	0.159 ± 0.26
LGLDTEVVGPGPGGYHLWQK	0.112 ± 0.27
LGLPSVFRRHFAFMVRMLWY	0.021 ± 0.75
LGNMHREDYGSSGSRARFKG	-0.612 ± 0.74
LGPLYQFDICGKGTGYGDHE	-0.673 ± 0.71
LGRFYTTCT	-0.981 ± 1.1
LGRIDRWKDQWCSLAELKS	-0.383 ± 1.7
LGRLAVDHLVCRRYDSSLHN	0.089 ± 1.1
LGSEAS	0.093 ± 0.2
LGTGCA	-0.507 ± 0.83
LGVRINGTNVLDFF	0.044 ± 0.27
LGWNKSTAYELCFTPSSGGY	2.11 ± 0.15
LGWSGMVGFG	0.08 ± 0.81
LGYAYSEPPWRLMVNWSPSA	1.66 ± 0.16

Substance	amyloid nucleation score
LHCFMWFFHIDN	7.456 ± 0.057
LHRITYLCSNVYSVCGLVCA	4.35 ± 0.079
LHSWSVAILIHYKMRD	-0.084 ± 0.27
LHWWRFFVEVTLPCLGFLLS	-0.308 ± 0.76
LIAVQWASMRQAWNIC	0.616 ± 1.2
LIFLDMAVL	-0.403 ± 1.4
LIFQVSQSIGTYSCTKSEGR	0.756 ± 0.2
LIHLMRRNAAKTPGAQRDN	0.947 ± 0.7
LIKSMDFLGRM	0.117 ± 0.69
LIMILGIRDHLTNCGGKVLQ	2.03 ± 0.3
LIMNFGGRLRVAGFGVLVMD	2.09 ± 0.15
LIRLMSQ	1.83 ± 0.24
LISGVS	inactive
LISVCRFLAIILFRTFA	0.365 ± 0.69
LITLAFVVSCVSYSRGSKRR	1.26 ± 0.17
LIYRVPIDLITNSNSALRCA	-0.018 ± 0.48
LKCLLKHGFTRNG	-2.08 ± 2.7
LKDRGYQKYFNSGLIGCNAS	-0.096 ± 0.47
LKEFISCGPGCINWLHGKDW	-0.519 ± 0.37
LKFMSPSLSTIDRDIK	0.156 ± 0.27
LKFSVFVKASPCTIRRS	-0.218 ± 0.5
LKGRYDIKNY	inactive
LKICLIGTNCMSNV	-0.234 ± 0.78
LKLLINGY	-0.333 ± 0.59
LKPLRKFRSNVNMR	inactive

Substance	amyloid nucleation score
LKSIPNCFRHFYVNTFS	-0.923 ± 0.49
LKSTEWSGRGFQ	0.862 ± 0.19
LKSWVLYYFM	1.03 ± 0.35
LKSYSTFVIRMNWLGDEGEL	-0.874 ± 0.8
LLALRPASNKWNAYQTLTEP	-0.462 ± 0.57
LLCARCRMSVSEFPNPGVSY	inactive
LLCLCESRVARYTWACHSWY	-0.366 ± 0.3
LLCLLYHAGGTKRGYTTWAS	-0.133 ± 1.2
LLFIAG	0.386 ± 0.66
LLGDKLV	-0.096 ± 0.46
LLGVGCNRIDWLNGAKN	2.04 ± 0.49
LLGVLWFKVSCGARAQLGIW	-0.197 ± 1.9
LLGYPSRLRPRYDFLPPGGM	0.014 ± 0.99
LLHHYGGYELVSDWTIAKF	0.364 ± 0.31
LLLGYVKSSLPIVGYSRMEG	0.548 ± 0.35
LLLLCMDARRKRYSSMSACS	1.02 ± 0.53
LLQAQHSF	0.208 ± 0.21
LLQVWYFFR	0.296 ± 0.66
LLRVLFFCFSMRCRVGISVA	0.86 ± 0.69
LLSIKSKSVFLASYCNILST	2.71 ± 0.17
LLSLNEMYMTLMGGTVPRVG	-0.076 ± 0.56
LLTMFLFNGSKYFLH	2.3 ± 0.2
LLVGKMCRWNMSYVG	-0.063 ± 0.28
